Assays:
[1] = molecular target: 16K hPRL binding sites in human placental membrane fractions (human); test: Scatchard analysis, radioligand binding, second trimester human placental membranes
[2] = molecular target: 16K hPRL binding sites in human placental membrane fractions (human); test: Scatchard analysis, radioligand binding, first trimester human placental membranes
[3] = molecular target: 16K hPRL binding sites in human placental membrane fractions (human); test: Scatchard analysis, radioligand binding, third trimester human placental membranes
[4] = molecular target: 16K hPRL binding sites in human placental membrane fractions (human); test: specific binding of 100 pM 125I-16K rPRL (counts displaced by 400 nM 16K hPRL), third trimester placental membranes, n=3
[5] = molecular target: 16K hPRL binding sites in human placental membrane fractions (human); test: specific binding of 100 pM 125I-16K rPRL (counts displaced by 400 nM 16K hPRL), second trimester placental membranes, n=3
[6] = molecular target: 16K hPRL binding sites in human placental membrane fractions (human); test: specific binding of 100 pM 125I-16K rPRL (counts displaced by 400 nM 16K hPRL), first trimester placental membranes, n=4

maximal binding (Bmax) (fmol/µg protein) [1] | maximal binding (Bmax) (fmol/µg protein) [2] | maximal binding (Bmax) (fmol/µg protein) [3] | maximal specific binding (cpm/5 µg protein) [4] | maximal specific binding (cpm/5 µg protein) [5] | maximal specific binding (cpm/5 µg protein) [6] | Substance
630 | 3.19 | 775 | – | – | – | 16K N-terminal human prolactin (ligand)
– | – | – | 4040 | 1780 | 357 | 125I-16K rPRL (rat 16K prolactin, radioiodinated) (from UniProt P01237 30-174) (ligand)

— patent US20040077054A1
